Molecular target: hBUBR1 (human (endogenous in HeLa)) (UniProt O60566)
Test: co-IP

Sequence of UniProt O60566 (O60566 whole entry): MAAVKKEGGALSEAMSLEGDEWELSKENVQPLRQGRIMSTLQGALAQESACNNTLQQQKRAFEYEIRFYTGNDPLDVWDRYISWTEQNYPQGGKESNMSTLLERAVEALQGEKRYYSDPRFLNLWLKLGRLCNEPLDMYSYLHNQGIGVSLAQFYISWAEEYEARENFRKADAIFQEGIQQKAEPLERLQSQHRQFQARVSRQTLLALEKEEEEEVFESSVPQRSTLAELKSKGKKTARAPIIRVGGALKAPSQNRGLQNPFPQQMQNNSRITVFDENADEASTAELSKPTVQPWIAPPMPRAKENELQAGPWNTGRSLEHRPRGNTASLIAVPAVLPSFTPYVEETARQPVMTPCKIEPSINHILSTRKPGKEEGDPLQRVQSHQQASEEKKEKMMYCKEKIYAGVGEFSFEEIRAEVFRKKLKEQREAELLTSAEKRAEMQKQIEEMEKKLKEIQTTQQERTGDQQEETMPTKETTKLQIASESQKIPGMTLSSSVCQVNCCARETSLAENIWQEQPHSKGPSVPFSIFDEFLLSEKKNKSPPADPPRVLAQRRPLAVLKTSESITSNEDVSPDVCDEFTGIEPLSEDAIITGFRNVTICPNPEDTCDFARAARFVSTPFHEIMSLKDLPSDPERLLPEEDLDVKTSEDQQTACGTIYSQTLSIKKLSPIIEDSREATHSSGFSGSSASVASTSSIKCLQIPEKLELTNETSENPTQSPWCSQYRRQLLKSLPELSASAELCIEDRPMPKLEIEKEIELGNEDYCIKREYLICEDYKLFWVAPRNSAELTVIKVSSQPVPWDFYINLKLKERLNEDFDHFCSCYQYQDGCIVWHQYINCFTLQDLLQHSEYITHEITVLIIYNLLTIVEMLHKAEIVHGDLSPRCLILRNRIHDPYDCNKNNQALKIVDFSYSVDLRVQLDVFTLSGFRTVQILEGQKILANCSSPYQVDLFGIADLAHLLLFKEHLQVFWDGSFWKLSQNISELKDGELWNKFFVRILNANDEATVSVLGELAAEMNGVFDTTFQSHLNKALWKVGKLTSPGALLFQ

stoichiometry N: 1
Substance: anaphase-promoting complex/cyclosome (APC/C) from mitotic HeLa cells (from UniProt P30260;Q13042;Q9UJX3)
